# Data from paper PMC8771563, “Mitochondrion-targeted supramolecular “nano-boat” simultaneously inhibiting dual energy metabolism for tumor selective and synergistic chemo-radiotherapy” (Theranostics, 2022).
# Peptide text beside a SMILES is read from it. * marks the point of attachment. X1 = O=C(c1nn(Cc2ccc(Cl)cc2Cl)c2ccccc12)*; Cyclenylacetyl = O=C(CN1CCNCCNCCNCC1)*; NBD = O=[N+]([O-])c1ccc(*)c2nonc12; βAla = NCCC(=O)O
# Tests used:
# MCF-7 tumors = assay: In vivo anti-tumor evaluation; details: MCF-7 tumor bearing nude mice, single i.v. injection, 5 mg/kg LND equivalent, day 14, vs PBS control
# Method: (§1) MCF-7 cells (1×10^7 cells per mouse) were subcutaneously injected into the breast regions of six-week-old nude mice to establish the tumor model. When the tumor volume grew to approximately 100 mm^3, all the mice were randomly divided into eight groups with seven mice in each group. Except for the control groups, all groups were intravenously administrated with 200 μL of LND-Pep-cyclen nanofibers, free LND, and mixture of free LND and free cyclen (5 mg/kg LND equivalent and 2 mg/kg cyclen equivalent), respectively. After 12 hours, the mice in the chemo-radiotherapy group were exposed to 6 Gy γ-rays. To evaluate the therapeutic efficacy, the tumor size and the body weight were recorded daily. The tumor volumes were measured using a vernier caliper and then calculated using the formula: (width^2×length)/2. On the 14th day, all the mice were euthanized when the tumor volume in the PBS control group reached approximately 1500 mm^3. The tumors and normal tissues including heart, liver, spleen, lung and kidney in each group were carefully collected, photographed, and then fixed in 4% form aldehyde for histological analysis.
# MCF-7 cells [1] = assay: Colony formation assay / radio-sensitization; type: cell-based; details: 10 μM, 12 h, γ-rays 0-6 Gy, multi-target single-hit model, n = 3
# Method: MCF-7 cells (1,000/well) were seeded in six-well plates and incubated with different forms of drugs at a concentration of 10 μM after 12 h. Subsequently, they were irradiated with γ-rays at doses of 0, 2, 4, and 6 Gy at 36 h. Following this, the cells were continuously cultured with a fresh drug-free medium in an incubator for another 5-8 days. The fixed colonies were then stained using crystal violet (0.25%, ethanol) for subsequently counting the number of colonies, and evaluating the colony inhibition ability of each treatment. Only colonies containing >50 cells were counted and survival curves were plotted with Origin. Furthermore, the SER value was used to compare the efficiencies of the different drugs in improving the sensitivity of the MCF-7 cells to radiotherapy. The SER was determined by a classical multi-target single-hit model using the following equation:
# S = 1 - (1 - e ^-D/D0)^n (1)
# where S is the survival fraction, D is the radiation dose, D0 is the mean lethal dose, and n is the extrapolation number. D0 and n were calculated using the“GraphPad Prism” software (version 8.0). The final survival fraction curve of each group was obtained by a nonlinear fitting using Origin 2018, and the SER was expressed using the following formulae:
# SER = Dq (control group)/Dq (treated group (2)
# MCF-7 cells [2] = assay: CCK-8 cytotoxicity assay; type: cell-based; details: 200 μM, 48 h
# Method: Circular dichroism (CD) spectra
# The secondary structure of LND- Pep-cyclen hydrogel and NBD- Pep-cyclen hydrogel were monitored by a circular dichroism (CD) spectrophotometer (BioLogic, MOS-450, France) system. The self-assembled hydrogel was added into a 0.1 cm quartz spectrophotometer cell (20- C/Q/0.1), then the CD signals were recorded in the 180- 280 nm scanning wavelength range. The final spectrogram was obtained after subtracting the PBS solvent background.
# Mammary carcinoma cancer cells (MCF-7 and 4T1), and mouse fibroblast cells normal cells (L929) were all maintained in our lab. These cells were cultured in DMEM (MCF-7) and RPMI 1640 medium (4T1 and L929) supplemented with 10%
# FBS and 1% penicillin-streptomycin in a humidified incubator maintained at 37 °C and 5% CO2, respectively.
# Cytotoxicity and apoptosis analysis
# All kinds of cells were seeded in 96-well plates at a density of 5000 cells per well. After 24 h incubation, the cells were treated with a series of pre-determined doses of LND-Pep-cyclen nanofibers, free LND, free cyclen, mixture of free LND and cyclen molecules for 48 h. After adding 10 μL CCK-8 solution to each well, the cells were incubated at 37 °C for another 4 h. OD450 was measured using a Thermo Scientific™ Varioskan™ LUX (Thermo, CA, USA), and then the cell viability values
# MCF-7 cells [3] = assay: Annexin V-FITC/PI apoptosis flow cytometry; type: cell-based; details: 50 μM, 48 h, Figure 2D
# Method: of different groups at different doses were calculated. For apoptosis assay, MCF -7 and L929 cells were cultured in 6-well plates at a density of 2 × 10^5 cells per well, then were treated with different forms of drug for 48 h. Afterwards, cells were harvested at 1000 rpm for 5 min and then washed with ice-cold PBS twice. Upon being suspended in 100 μL 1× binding buffer, the samples were incubated with 5 μL of FITC-Annexin- V and 5 μL of PI for 15 min at room temperature in the dark. Finally, the cells were added in 100 μL 1× binding buffer blending gently and analyzed by flow cytometry (Becton Dickinson, NJ, USA) within 1 h.
# MCF-7 cancer cells and L929 normal cells with a density of 1×10^5 cells/mL were cultured in confocal chambers and 6-well plates at 37 °C, respectively. After 70% confluence, the cells were treated with fresh medium which contained the same concentrations of LND-Pep-cyclen nanofibers, LND, cyclen, mixture of free LND and cyclen molecules for 12 h. Then, followed by washing twice with PBS and incubated with 1 mL DCFH-DA (10 μM) at 37 °C for 30 min in the dark. The cells in 6-well plates were harvested, washed, re- suspended and then loaded on flow cytometry for quantitate analysis. […] Excitation at 488 nm and signal collection at 525 ± 10 nm for DCFH-DA fluorescence. […]
# MCF-7 cells [4] = assay: ATP content (luminescent assay); type: cell-based; details: 50 μM, 24 h, per cell, control = 100%, mean n = 5
# Method: MCF-7 cells with a density of 5000 cells/well were seeded in 96-well plates, and then were cultured at the incubators for 24 h at 37 °C under 5% CO2. After co-incubation with different forms of drugs for another 24 h, the growth medium was removed, and the wells were washed twice with PBS. The cell number of each group was counted before all the measurements. After dissociation and centrifugation, the liquid supernatant was collected for the following analysis of the HK activity and the lactate content. The hexokinase (HK) activity of the cells in each group was determined by the OD340 absorbance according to the specification of the HK activity assay kit (Solarbio, BC0745). The intracellular lactate content was detected using an L-lactate assay kit (Promega, J5021) and depended on the OD565 absorbance. A luminescent ATP detection assay kit (Abcam, ab113849) was used to analyze the quantity of ATP. All the data were shown as the mean value in per cell of each group.
# MCF-7 cells [5] = assay: MMP depolarization (JC-1 probe, CLSM); type: cell-based; details: 50 μM, 24 h, serum-free medium, JC-1 10 µg/mL 30 min
# Method: MCF-7 cancer cells with a density of 2 × 10^5 cells/mL were cultured in confocal cuvettes under 5% CO2 at 37 °C. After the number of anchorage-dependent cells reached up to 70%, the cells were incubated with a replaceable serum-free medium containing different forms of the drug (50 μM) for 24 h. This was followed by washing away the drug that was not absorbed and staining with 1 mL JC-1 probe (10 µg/mL) for 30 min in dark. After washing with PBS for three times, the cells were imaged by CLSM to examine the fluorescence intensity of the J-monomers and the J-aggregates.
# [6] = H&E histology of major organs after treatment; type: in vivo, nude mice; details: single administration, compared with control group (Figure S22)
# Method: as §1
# [7] = Bio-compatibility evaluation (hematology, blood biochemistry); type: in vivo; details: BALB/c mice, 20 mg/kg i.v. at day 0, 7, 14, 21 (four injections), n = 5
# Method: Cambridge, UK), anti-Bcl-2 (1:1000, Abcam, Cambridge, UK), anti-smac and anti-GAPDH antibody. After washing with 1 ×TBST, membranes were incubated with corresponding secondary antibody for 1 h at room temperature. The membranes were washed 3 times by 1 ×TBST and illuminated by an enhanced chemiluminescent (ECL) kit (Pierce™ ECL Western Blotting Substrate, Thermo Scientific, Rockford, IL, USA) on a Bio- Rad film (Sigma-Aldrich, St. Louis, MO, USA).
# Bio-compatibility evaluation
# Six-week-old BALB/c mice were randomly assigned to two groups and intravenously administrated with 200 μL of LND-Pep-cyclen nanofibers (20 mg/kg) and PBS at 0 day, 7 day, 14 day, 21 day. All the mice were sacrificed at the last time point, followed by collecting the whole body blood for the hematology and blood
# MCF-7 and L929 cells = assay: Flow cytometry of NBD accumulation in cancer versus normal cells; type: cell-based; details: 50 μM, 4 h, flow cytometry MFI, n = 3
# MCF-7 cells [8] = type: cell-based
# Method: To confirm our hypothesis, we subsequently used a fluorescent molecule of 7-nitrobenzo-2-oxa-1,3-diazole (NBD), to replace LND, resulting in another peptide conjugate of NBD-GFFYK-cyclen (NBD-Pep-cyclen). […] Therefore, the NBD-Pep-cyclen conjugate could be very qualified as a substitute for LND-Pep-cyclen to verify its mitochondrial targeting performance. After incubation with MCF-7 cells for 4 hours, the cellular distribution of the NBD-Pep-cyclen nanofibers was investigated. […] The endocytosis mechanism for the cellular uptake was investigated using several well-established endocytotic inhibitors. […] In contrast, the addition of NaN3 (an inhibitor of energy-dependent endocytosis) and chlorpromazine (an inhibitor of clathrin-mediated endocytosis) reduced the uptake to less than 50%. […]
# Figure S9 (A) CLSM images of MCF-7 cells treated with NBD-Pep-cyclen
# nanofibers in the absence and presence of endocytotic inhibitors. […]
structure (smiles),measurement,setting,value
"O=C(O)c1nn(Cc2ccc(Cl)cc2Cl)c2ccccc12 [LND, Lonidamine]","Tumor growth / final tumor volume, chemotherapy only",MCF-7 tumors,barely inhibit the tumor growth
same,SER (sensitization enhancement ratio),MCF-7 cells [1],1.78
same,Cell survival rate,MCF-7 cells [2],50%
same,Cells in lower right quadrant (PI / Annexin V-FITC plot); early apoptosis rate,MCF-7 cells [3],1.45%
same,"ATP content, of control",MCF-7 cells [4],60%
same,MMP depolarization,MCF-7 cells [5],very limited effect
O=C(CN1CCNCCNCCNCC1)NCCCC[C@H](NC(=O)[C@H](Cc1ccc(O)cc1)NC(=O)[C@H](Cc1ccccc1)NC(=O)[C@H](Cc1ccccc1)NC(=O)CNC(=O)c1nn(Cc2ccc(Cl)cc2Cl)c2ccccc12)C(=O)O [LND-Pep-cyclen] (X1-GFFYK(Cyclenylacetyl)-OH),"Histological changes in liver, spleen, kidney, heart, lung (H&E)",[6],no appreciable inflammatory damage and tissue damage
same,"Liver and kidney indices (ALT, AST, TBIL, BUN)",[7]; vs control,normal with no relevant difference
same,Blood routine values,[7]; vs untreated control,no apparent variations
O=C(CCNc1ccc([N+](=O)[O-])c2nonc12)NCC(=O)N[C@@H](Cc1ccccc1)C(=O)N[C@@H](Cc1ccccc1)C(=O)N[C@@H](Cc1ccc(O)cc1)C(=O)N[C@@H](CCCCNC(=O)CN1CCNCCNCCNCC1)C(=O)O [NBD-Pep-cyclen] ({NBD-βAla}-GFFYK(Cyclenylacetyl)-OH),NBD fluorescence intensity in MCF-7 cells relative to L929 cells,MCF-7 and L929 cells,more than two-folds
same,Cellular uptake in presence of NaN3,MCF-7 cells [8],less than 50%
same,Cellular uptake in presence of chlorpromazine,MCF-7 cells [8],less than 50%
same,Cellular uptake in presence of nystatin,MCF-7 cells [8],barely affected
same,Cellular uptake in presence of wortmannin,MCF-7 cells [8],barely affected
